Assays:
[1] = target: bovine brain Arp2/3 complex (bovine) (UniProt P61157); test: ITC; Coro7 CA in the syringe, ATP-bound Arp2/3 complex in the 1.44 mL cell; 25 °C; 20 mM HEPES pH 7.5, 100 mM KCl, 1 mM MgCl2, 1 mM EGTA, 1 mM DTT, 0.2 mM ATP
[2] = target: bovine brain Arp2/3 complex (bovine) (UniProt P61157); test: ITC; Coro7 CA in the syringe, ADP-bound Arp2/3 complex in the 1.44 mL cell; 25 °C; 20 mM HEPES pH 7.5, 100 mM KCl, 1 mM MgCl2, 1 mM EGTA, 1 mM DTT, 0.2 mM ADP

Sequence of human Coro7 CA (C-terminal Central-Acidic region of coronin 7) (P57737 888-925): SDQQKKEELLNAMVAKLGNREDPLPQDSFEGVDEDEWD

Kd [1]: 1000 nM
stoichiometry N [1]: 1
Kd [2]: 1000 nM
stoichiometry N [2]: 1
Substance: human Coro7 CA (C-terminal Central-Acidic region of coronin 7) (from UniProt P57737-1 888-925) (domain or fragment)

From PMC12592476
